Test results: paper PMC8546600, “Chaperone Spy Protects Outer Membrane Proteins from Folding Stress via Dynamic Complex Formation” (mBio, 2021)

Key:
Conditions in all cases: both partners purified
His-OmpX = target: T1, His-OmpX (Escherichia coli, UniProt P0A917 24-171); assay: other fluorescence titration; intrinsic tryptophan fluorescence of the OMP (0.4 uM) titrated with increasing Spy or Skp; 40 mM HEPES, 150 mM NaCl, 0.24 M urea, pH 7.5; 25 C; excitation 295 nm, emission 305-400 nm
T1 construct: Unfolded: diluted from 8 M urea to 0.24 M urea for the assay; source: E. coli, from pET28b(+)-His-ompX, purified, kept in 8 M urea; not shown: 6xHis, N-terminal, kept
T1 sequence (looked up): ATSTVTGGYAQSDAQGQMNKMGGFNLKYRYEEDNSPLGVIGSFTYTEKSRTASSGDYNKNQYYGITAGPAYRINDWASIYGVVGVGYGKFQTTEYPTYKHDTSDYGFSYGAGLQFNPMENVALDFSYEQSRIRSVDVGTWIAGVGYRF

His-OmpC = target: T2, His-OmpC (Escherichia coli, UniProt P06996 22-367); assay: as above
T2 construct: Unfolded: diluted from 8 M urea to 0.24 M urea for the assay; source: E. coli, from pET28b(+)-His-ompC, purified, kept in 8 M urea; not shown: 6xHis, N-terminal, kept
T2 sequence (looked up): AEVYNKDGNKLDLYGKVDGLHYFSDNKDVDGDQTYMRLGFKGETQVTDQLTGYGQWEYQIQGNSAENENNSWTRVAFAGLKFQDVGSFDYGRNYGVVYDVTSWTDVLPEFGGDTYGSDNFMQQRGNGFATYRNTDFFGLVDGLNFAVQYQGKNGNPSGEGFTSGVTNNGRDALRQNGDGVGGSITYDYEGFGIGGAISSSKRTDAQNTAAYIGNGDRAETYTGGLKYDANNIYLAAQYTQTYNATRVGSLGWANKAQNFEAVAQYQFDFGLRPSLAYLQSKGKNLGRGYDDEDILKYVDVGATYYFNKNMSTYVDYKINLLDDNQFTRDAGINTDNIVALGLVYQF

His-OmpA = target: T3, His-OmpA (Escherichia coli, UniProt P0A910 22-346); assay: as above
T3 construct: Unfolded: diluted from 8 M urea to 0.24 M urea for the assay; source: E. coli, from pET28b(+)-His-ompA, purified, kept in 8 M urea; not shown: 6xHis, N-terminal, kept
T3 sequence (looked up): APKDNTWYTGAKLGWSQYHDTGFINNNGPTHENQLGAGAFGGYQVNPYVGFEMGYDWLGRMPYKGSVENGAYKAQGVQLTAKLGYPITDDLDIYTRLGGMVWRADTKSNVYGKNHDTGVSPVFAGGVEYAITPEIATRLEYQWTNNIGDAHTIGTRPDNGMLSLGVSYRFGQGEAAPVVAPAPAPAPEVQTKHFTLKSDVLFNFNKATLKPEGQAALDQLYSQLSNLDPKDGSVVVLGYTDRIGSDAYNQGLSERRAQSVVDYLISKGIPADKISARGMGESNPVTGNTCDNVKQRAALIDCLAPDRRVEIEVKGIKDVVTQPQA

His-LamB = target: T4, His-LamB (Escherichia coli, UniProt P02943 26-446); assay: as above
T4 construct: Unfolded: diluted from 8 M urea to 0.24 M urea for the assay; source: E. coli, from pET28b(+)-His-lamB, purified, kept in 8 M urea; not shown: 6xHis, N-terminal, kept
T4 sequence (P02943 26-446): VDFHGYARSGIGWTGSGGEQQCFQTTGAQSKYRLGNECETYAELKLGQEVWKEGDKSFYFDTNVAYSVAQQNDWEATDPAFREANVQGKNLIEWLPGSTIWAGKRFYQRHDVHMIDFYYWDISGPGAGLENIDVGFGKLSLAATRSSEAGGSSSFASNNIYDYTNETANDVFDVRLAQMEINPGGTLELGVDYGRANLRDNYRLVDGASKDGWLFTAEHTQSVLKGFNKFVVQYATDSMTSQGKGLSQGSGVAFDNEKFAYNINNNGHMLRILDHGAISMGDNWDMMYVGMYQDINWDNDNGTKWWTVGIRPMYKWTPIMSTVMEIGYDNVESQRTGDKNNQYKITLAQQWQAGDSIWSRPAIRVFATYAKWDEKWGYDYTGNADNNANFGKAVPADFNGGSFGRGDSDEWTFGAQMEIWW

untagged OmpX = target: T5, untagged OmpX (Escherichia coli, UniProt P0A917 24-171); assay: NMR spectroscopy of assembled chaperone-OMP complexes; excess urea-denatured OMP added dropwise to the chaperone, supernatant concentrated; 2D [15N,1H]-TROSY or HSQC with one partner [U-2H,15N]-labelled; 25 mM MES, 50 mM NaCl, pH 6.5; 315 K (tOmpA-Spy also at 42, 26 and 15 C)
T5 construct: outer membrane protein OmpX of Escherichia coli; [U-2H,15N]-labelled in the TROSY experiments, unlabelled in the HSQC experiment with labelled Spy; source: E. coli, from pET28b(+)-ompX, purified from the insoluble pellet in 8 M urea (ion exchange)
T5 sequence (looked up): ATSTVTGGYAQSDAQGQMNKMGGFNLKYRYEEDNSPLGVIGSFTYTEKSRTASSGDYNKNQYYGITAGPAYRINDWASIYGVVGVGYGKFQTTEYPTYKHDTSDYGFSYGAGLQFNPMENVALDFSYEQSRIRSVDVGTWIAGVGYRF

Measured: binding result

B1: periplasmic chaperone Spy (natural protein, Escherichia coli, UniProt P77754 24-161, looked up)
chain: ADTTTAAPADAKPMMHHKGKFGPHQDMMFKDLNLTDAQKQQIREIMKGQRDQMKRPPLEERRAMHDIIASDTFDKVKAEAQIAKMEEQRKANMLAHMETQNKIYNILTPEQKKQFNANFEKRLTERPAAKGKMPATAE
notes: Spy, periplasmic chaperone of Escherichia coli; [U-2H,15N]-labelled in the HSQC experiment with unlabelled OmpX, unlabelled elsewhere; also called wild-type Spy; WT Spy; source: E. coli, from pET28b(+)-HisSUMO-spy, purified (6xHis-SUMO tag removed, cation exchange)
binds: His-OmpX | His-OmpC | His-OmpA | His-LamB | untagged OmpX

B2: Spy^Q100L (natural protein, Escherichia coli, UniProt P77754 24-161, looked up)
chain: ADTTTAAPADAKPMMHHKGKFGPHQDMMFKDLNLTDAQKQQIREIMKGQRDQMKRPPLEERRAMHDIIASDTFDKVKAEAQIAKMEEQRKANMLAHMETLNKIYNILTPEQKKQFNANFEKRLTERPAAKGKMPATAE
notes: Spy of Escherichia coli with Q100L; also called Q100L variant; source: E. coli, from pET28b(+)-HisSUMO-spy-Q100L, purified
binds: untagged OmpX

B3: seventeen-kilodalton protein (Skp) (natural protein, Escherichia coli, UniProt P0AEU7 21-161, looked up)
chain: ADKIAIVNMGSLFQQVAQKTGVSNTLENEFKGRASELQRMETDLQAKMKKLQSMKAGSDRTKLEKDVMAQRQTFAQKAQAFEQDRARRSNEERGKLVTRIQTAVKSVANSQDIDLVVDANAVAYNSSDVKDITADVLKQVK
notes: Skp, periplasmic chaperone of Escherichia coli; source: E. coli, from pET28b(+)-HisSUMO-skp, purified (6xHis-SUMO tag removed, cation exchange)
binds: His-OmpX | His-OmpC | His-OmpA | His-LamB
